Legend:
[1] = molecular target: SepM_D221N (Streptococcus mutans); assay: MST; SepM (50 nM) labelled on its His-tag with RED-tris-NTA; CSP-21 in a 16-point serial dilution from 100 µM; PBS pH 5.5; 25 °C; Monolith NT.115, triplicate
[2] = molecular target: SepM_G178D (Streptococcus mutans); assay: as above
[3] = molecular target: SepM_control (Streptococcus mutans); assay: as above
[4] = molecular target: SepM_D221N (Streptococcus mutans); assay: MST; SepM (50 nM) labelled on its His-tag with RED-tris-NTA; CSP-21 in a 16-point serial dilution from 100 µM; PBS pH 5.5; 37 °C; Monolith NT.115, triplicate
[5] = molecular target: SepM_G178D (Streptococcus mutans); assay: as above
[6] = molecular target: SepM_control (Streptococcus mutans); assay: as above
[7] = molecular target: SepM_D221N (Streptococcus mutans); assay: MST; SepM (50 nM) labelled on its His-tag with RED-tris-NTA; CSP-21 in a 16-point serial dilution from 100 µM; PBS pH 7.5; 25 °C; Monolith NT.115, triplicate
[8] = molecular target: SepM_G178D (Streptococcus mutans); assay: as above
[9] = molecular target: SepM_control (Streptococcus mutans); assay: as above
[10] = molecular target: SepM_D221N (Streptococcus mutans); assay: MST; SepM (50 nM) labelled on its His-tag with RED-tris-NTA; CSP-21 in a 16-point serial dilution from 100 µM; PBS pH 7.5; 37 °C; Monolith NT.115, triplicate
[11] = molecular target: SepM_G178D (Streptococcus mutans); assay: as above
[12] = molecular target: SepM_control (Streptococcus mutans); assay: as above

Substance: CSP-21 (peptide)
- Kd [1]: 8.25 µM
- Kd [2]: 44.2 µM
- Kd [3]: 33.1 µM
- Kd [4]: 7.52 µM
- Kd [5]: 21.4 µM
- Kd [6]: 12.8 µM
- Kd [7]: 20.8 µM
- Kd [8]: 3.02 µM
- Kd [9]: 15.9 µM
- Kd [10]: 28.7 µM
- Kd [11]: 85 µM
- Kd [12]: 29.3 µM

Reference: paper PMC11197336
